Measurements reported in IntAct's records for PubMed 28065597.

B1: Receptor-type tyrosine-protein phosphatase R (Homo sapiens), Q15256 (parent)
chain: MRRAVCFPALCLLLNLHAAGCFSGNNDHFLAINQKKSGKPVFIYKHSQDIEKSLDIAPQKIYRHSYHSSSEAQVSKRHQIVNSAFPRPAYDPSLNLLAMDGQDLEVENLPIPAANVIVVTLQMDVNKLNITLLRIFRQGVAAALGLLPQQVHINRLIGKKNSIELFVSPINRKTGISDALPSEEVLRSLNINVLHQSLSQFGITEVSPEKNVLQGQHEADKIWSKEGFYAVVIFLSIFVIIVTCLMILYRLKERFQLSLRQDKEKNQEIHLSPITLQPALSEAKTVHSMVQPEQAPKVLNVVVDPQGRGAPEIKATTATSVCPSPFKMKPIGLQERRGSNVSLTLDMSSLGNIEPFVSIPTPREKVAMEYLQSASRILTRSQLRDVVASSHLLQSEFMEIPMNFVDPKEIDIPRHGTKNRYKTILPNPLSRVCLRPKNVTDSLSTYINANYIRGYSGKEKAFIATQGPMINTVDDFWQMVWQEDSPVIVMITKLKEKNEKCVLYWPEKRGIYGKVEVLVISVNECDNYTIRNLVLKQGSHTQHVKHYWYTSWPDHKTPDSAQPLLQLMLDVEEDRLASQGRGPVVVHCSAGIGRTGCFIATSIGCQQLKEEGVVDALSIVCQLRMDRGGMVQTSEQYEFVHHALCLYESRLSAETVQ
B2: Receptor tyrosine-protein kinase erbB-4 (Homo sapiens), Q15303 (parent)
chain: MKPATGLWVWVSLLVAAGTVQPSDSQSVCAGTENKLSSLSDLEQQYRALRKYYENCEVVMGNLEITSIEHNRDLSFLRSVREVTGYVLVALNQFRYLPLENLRIIRGTKLYEDRYALAIFLNYRKDGNFGLQELGLKNLTEILNGGVYVDQNKFLCYADTIHWQDIVRNPWPSNLTLVSTNGSSGCGRCHKSCTGRCWGPTENHCQTLTRTVCAEQCDGRCYGPYVSDCCHRECAGGCSGPKDTDCFACMNFNDSGACVTQCPQTFVYNPTTFQLEHNFNAKYTYGAFCVKKCPHNFVVDSSSCVRACPSSKMEVEENGIKMCKPCTDICPKACDGIGTGSLMSAQTVDSSNIDKFINCTKINGNLIFLVTGIHGDPYNAIEAIDPEKLNVFRTVREITGFLNIQSWPPNMTDFSVFSNLVTIGGRVLYSGLSLLILKQQGITSLQFQSLKEISAGNIYITDNSNLCYYHTINWTTLFSTINQRIVIRDNRKAENCTAEGMVCNHLCSSDGCWGPGPDQCLSCRRFSRGRICIESCNLYDGEFREFENGSICVECDPQCEKMEDGLLTCHGPGPDNCTKCSHFKDGPNCVEKCPDGLQGANSFIFKYADPDRECHPCHPNCTQGCNGPTSHDCIYYPWTGHSTLPQHARTPLIAAGVIGGLFILVIVGLTFAVYVRRKSIKKKRALRRFLETELVEPLTPSGTAPNQAQLRILKETELKRVKVLGSGAFGTVYKGIWVPEGETVKIPVAIKILNETTGPKANVEFMDEALIMASMDHPHLVRLLGVCLSPTIQLVTQLMPHGCLLEYVHEHKDNIGSQLLLNWCVQIAKGMMYLEERRLVHRDLAARNVLVKSPNHVKITDFGLARLLEGDEKEYNADGGKMPIKWMALECIHYRKFTHQSDVWSYGVTIWELMTFGGKPYDGIPTREIPDLLEKGERLPQPPICTIDVYMVMVKCWMIDADSRPKFKELAAEFSRMARDPQRYLVIQGDDRMKLPSPNDSKFFQNLLDEEDLEDMMDAEEYLVPQAFNIPPPIYTSRARIDSNRSEIGHSPPPAYTPMSGNQFVYRDGGFAAEQGVSVPYRAPTSTIPEAPVAQGATAEIFDDSCCNGTLRKPVAPHVQEDSSTQRYSADPTVFAPERSPRGELDEEGYMTPMRDKPKQEYLNPVEENPFVSRRKNGDLQALDNPEYHNASNGPPKAEDEYVNEPLYLNTFANTLGKAEYLKNNILSMPEKAKKAFDNPDYWNHSLPPRSTLQHPDYLQEYSTKYFYKQNGRIRPIVAENPEYLSEFSLKPGTVLPPPPYRHRNTVV
partner: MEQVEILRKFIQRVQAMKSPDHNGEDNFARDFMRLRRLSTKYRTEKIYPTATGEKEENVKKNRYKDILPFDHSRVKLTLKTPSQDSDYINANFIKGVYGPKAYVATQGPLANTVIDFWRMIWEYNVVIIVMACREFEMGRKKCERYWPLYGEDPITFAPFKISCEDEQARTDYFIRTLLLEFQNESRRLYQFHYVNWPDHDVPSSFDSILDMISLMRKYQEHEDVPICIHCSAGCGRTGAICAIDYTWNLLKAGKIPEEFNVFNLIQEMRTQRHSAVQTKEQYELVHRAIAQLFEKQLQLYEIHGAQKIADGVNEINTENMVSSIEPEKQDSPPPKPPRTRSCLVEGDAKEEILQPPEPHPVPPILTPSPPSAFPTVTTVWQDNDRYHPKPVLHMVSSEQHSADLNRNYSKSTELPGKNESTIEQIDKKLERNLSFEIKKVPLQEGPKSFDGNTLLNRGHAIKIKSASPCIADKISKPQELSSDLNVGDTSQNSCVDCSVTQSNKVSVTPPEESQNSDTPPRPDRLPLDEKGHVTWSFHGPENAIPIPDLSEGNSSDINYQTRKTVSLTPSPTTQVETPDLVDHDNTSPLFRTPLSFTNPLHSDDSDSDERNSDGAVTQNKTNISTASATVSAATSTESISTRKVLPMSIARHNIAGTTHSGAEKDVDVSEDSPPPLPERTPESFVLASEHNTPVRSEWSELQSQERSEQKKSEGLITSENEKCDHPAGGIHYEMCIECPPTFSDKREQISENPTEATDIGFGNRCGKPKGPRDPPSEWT
B3: Macrophage-stimulating protein receptor (Mus musculus), Q62190 (parent)
chain: MGLPLPLLQSSLLLMLLLRLSAASTNLNWQCPRIPYAASRDFSVKYVVPSFSAGGRVQATAAYEDSTNSAVFVATRNHLHVLGPDLQFIENLTTGPIGNPGCQTCASCGPGPHGPPKDTDTLVLVMEPGLPALVSCGSTLQGRCFLHELEPRGKALHLAAPACLFSANNNKPEACTDCVASPLGTRVTVVEQGHASYFYVASSLDPELAASFSPRSVSIRRLKSDTSGFQPGFPSLSVLPKYLASYLIKYVYSFHSGDFVYFLTVQPISVTSPPSALHTRLVRLNAVEPEIGDYRELVLDCHFAPKRRRRGAPEGTQPYPVLQAAHSAPVDAKLAVELSISEGQEVLFGVFVTVKDGGSGMGPNSVVCAFPIYHLNILIEEGVEYCCHSSNSSSLLSRGLDFFQTPSFCPNPPGGEASGPSSRCHYFPLMVHASFTRVDLFNGLLGSVKVTALHVTRLGNVTVAHMGTVDGRVLQVEIARSLNYLLYVSNFSLGSSGQPVHRDVSRLGNDLLFASGDQVFKVPIQGPGCRHFLTCWRCLRAQRFMGCGWCGDRCDRQKECPGSWQQDHCPPEISEFYPHSGPLRGTTRLTLCGSNFYLRPDDVVPEGTHQITVGQSPCRLLPKDSSSPRPGSLKEFIQELECELEPLVTQAVGTTNISLVITNMPAGKHFRVEGISVQEGFSFVEPVLTSIKPDFGPRAGGTYLTLEGQSLSVGTSRAVLVNGTQCRLEQVNEEQILCVTPPGAGTARVPLHLQIGGAEVPGSWTFHYKEDPIVLDISPKCGYSGSHIMIHGQHLTSAWHFTLSFHDGQSTVESRCAGQFVEQQQRRCRLPEYVVRNPQGWATGNLSVWGDGAAGFTLPGFRFLPPPSPLRAGLVELKPEEHSVKVEYVGLGAVADCVTVNMTVGGEVCQHELRGDVVICPLPPSLQLGKDGVPLQVCVDGGCHILSQVVRSSPGRASQRILLIALLVLILLVAVLAVALIFNSRRRKKQLGAHSLSPTTLSDINDTASGAPNHEESSESRDGTSVPLLRTESIRLQDLDRMLLAEVKDVLIPHEQVVIHTDQVIGKGHFGVVYHGEYTDGAQNQTHCAIKSLSRITEVQEVEAFLREGLLMRGLHHPNILALIGIMLPPEGLPRVLLPYMRHGDLLHFIRSPQRNPTVKDLVSFGLQVACGMEYLAEQKFVHRDLAARNCMLDESFTVKVADFGLARGVLDKEYYSVRQHRHARLPVKWMALESLQTYRFTTKSDVWSFGVLLWELLTRGAPPYPHIDPFDLSHFLAQGRRLPQPEYCPDSLYHVMLRCWEADPAARPTFRALVLEVKQVVASLLGDHYVQLTAAYVNVGPRAVDDGSVPPEQVQPSPQHCRSTSKPRPLSEPPLPT
partner: B1 chain
B4: Tyrosine-protein phosphatase non-receptor type 12 (Homo sapiens), Q05209 (parent)
chain: B2 partner
B5: Tyrosine-protein phosphatase non-receptor type 7 (Homo sapiens), P35236 (parent)
chain: MVQAHGGRSRAQPLTLSLGAAMTQPPPEKTPAKKHVRLQERRGSNVALMLDVRSLGAVEPICSVNTPREVTLHFLRTAGHPLTRWALQRQPPSPKQLEEEFLKIPSNFVSPEDLDIPGHASKDRYKTILPNPQSRVCLGRAQSQEDGDYINANYIRGYDGKEKVYIATQGPMPNTVSDFWEMVWQEEVSLIVMLTQLREGKEKCVHYWPTEEETYGPFQIRIQDMKECPEYTVRQLTIQYQEERRSVKHILFSAWPDHQTPESAGPLLRLVAEVEESPETAAHPGPIVVHCSAGIGRTGCFIATRIGCQQLKARGEVDILGIVCQLRLDRGGMIQTAEQYQFLHHTLALYAGQLPEEPSP

Variants of: B1
Details: with ret_human RET

| Variant | effect of a mutation on the interaction |
| --- | --- |
| Y249F | increasing interaction |

Variants of: B1
Details: with ron_mouse Mst1r, Q62190

| Variant | effect of a mutation on the interaction |
| --- | --- |
| Y249F | increasing interaction |

Variants of: B2
Details: with ptn12_human PTPN12, Q05209

| Variant | effect of a mutation on the interaction |
| --- | --- |
| D843N | with no effect |

Variants of: B2
Details: with ptn12_human PTPN12, Q05209
Remark: another data set of the same source

| Variant | effect of a mutation on the interaction |
| --- | --- |
| D843N | increasing interaction |

Variants of: B3
Details: with ptprr_human PTPRR, Q15256

| Variant | effect of a mutation on the interaction |
| --- | --- |
| K1091A | decreasing interaction |

Variants of: B4
Details: with erbb4_human ERBB4, Q15303

| Variant | effect of a mutation on the interaction |
| --- | --- |
| C231S | with no effect |
| D199A;C231S | disrupting interaction |

Variants of: B4
Details: with erbb4_human ERBB4, Q15303
Remark: another data set of the same source

| Variant | effect of a mutation on the interaction |
| --- | --- |
| C231S | disrupting interaction |

Variants of: B4
Details: with fgfr2_human FGFR2, P21802
fgfr2_human FGFR2, P21802, sequence (P21802 whole entry, looked up): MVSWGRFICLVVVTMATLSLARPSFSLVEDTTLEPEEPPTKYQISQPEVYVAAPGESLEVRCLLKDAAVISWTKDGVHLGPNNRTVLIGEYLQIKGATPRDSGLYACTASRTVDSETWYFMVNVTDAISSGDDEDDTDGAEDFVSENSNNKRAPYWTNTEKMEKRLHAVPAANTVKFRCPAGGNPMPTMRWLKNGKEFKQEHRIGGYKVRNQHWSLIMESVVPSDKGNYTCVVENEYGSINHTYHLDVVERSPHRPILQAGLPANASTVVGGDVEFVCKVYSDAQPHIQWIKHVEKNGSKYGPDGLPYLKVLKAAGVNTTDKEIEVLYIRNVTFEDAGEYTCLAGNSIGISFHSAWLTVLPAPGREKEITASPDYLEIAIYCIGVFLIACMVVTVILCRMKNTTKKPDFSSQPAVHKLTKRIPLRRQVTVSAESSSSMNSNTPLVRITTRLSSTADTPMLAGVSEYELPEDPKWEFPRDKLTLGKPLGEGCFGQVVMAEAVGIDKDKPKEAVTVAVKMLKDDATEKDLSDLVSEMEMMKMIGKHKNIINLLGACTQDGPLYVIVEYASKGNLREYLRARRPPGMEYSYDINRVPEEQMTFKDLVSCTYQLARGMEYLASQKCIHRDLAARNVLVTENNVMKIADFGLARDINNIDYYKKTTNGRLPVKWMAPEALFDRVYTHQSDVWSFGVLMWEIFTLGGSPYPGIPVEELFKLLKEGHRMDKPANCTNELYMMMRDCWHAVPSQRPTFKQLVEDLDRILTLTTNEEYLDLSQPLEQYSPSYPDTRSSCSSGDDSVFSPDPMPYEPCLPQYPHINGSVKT

| Variant | effect of a mutation on the interaction |
| --- | --- |
| C231S | disrupting interaction |
| D199A;C231S | disrupting interaction |

Variants of: B4
Details: with fgfr4_human FGFR4, P22455
fgfr4_human FGFR4, P22455, sequence (P22455 whole entry, looked up): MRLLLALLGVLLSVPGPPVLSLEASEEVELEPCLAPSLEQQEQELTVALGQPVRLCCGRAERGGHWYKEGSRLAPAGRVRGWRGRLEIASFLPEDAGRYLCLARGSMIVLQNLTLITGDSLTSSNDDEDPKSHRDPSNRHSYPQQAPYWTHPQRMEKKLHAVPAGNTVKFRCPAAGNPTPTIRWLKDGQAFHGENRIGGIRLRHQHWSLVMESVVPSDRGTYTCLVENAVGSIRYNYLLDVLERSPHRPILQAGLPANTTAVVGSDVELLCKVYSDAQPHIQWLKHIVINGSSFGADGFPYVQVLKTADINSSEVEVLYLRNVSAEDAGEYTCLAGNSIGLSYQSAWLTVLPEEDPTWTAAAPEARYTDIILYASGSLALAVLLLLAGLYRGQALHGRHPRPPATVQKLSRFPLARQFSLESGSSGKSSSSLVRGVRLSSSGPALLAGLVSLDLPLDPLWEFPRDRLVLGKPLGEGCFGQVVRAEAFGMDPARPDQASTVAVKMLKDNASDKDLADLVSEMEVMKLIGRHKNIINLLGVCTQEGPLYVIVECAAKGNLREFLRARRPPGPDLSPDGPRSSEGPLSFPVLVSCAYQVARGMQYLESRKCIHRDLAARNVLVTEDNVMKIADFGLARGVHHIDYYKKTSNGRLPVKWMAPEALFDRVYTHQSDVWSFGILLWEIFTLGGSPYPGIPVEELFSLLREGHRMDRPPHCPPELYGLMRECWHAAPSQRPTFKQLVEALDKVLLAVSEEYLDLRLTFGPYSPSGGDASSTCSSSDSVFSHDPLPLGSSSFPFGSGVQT

| Variant | effect of a mutation on the interaction |
| --- | --- |
| C231S | increasing interaction |

Variants of: B4
Details: with vgfr2_human KDR

| Variant | effect of a mutation on the interaction |
| --- | --- |
| C231S | with no effect |
| D199A;C231S | with no effect |

Variants of: B4
Details: with igf1r_human IGF1R
Target sequence in this assay (P08069 whole entry, looked up): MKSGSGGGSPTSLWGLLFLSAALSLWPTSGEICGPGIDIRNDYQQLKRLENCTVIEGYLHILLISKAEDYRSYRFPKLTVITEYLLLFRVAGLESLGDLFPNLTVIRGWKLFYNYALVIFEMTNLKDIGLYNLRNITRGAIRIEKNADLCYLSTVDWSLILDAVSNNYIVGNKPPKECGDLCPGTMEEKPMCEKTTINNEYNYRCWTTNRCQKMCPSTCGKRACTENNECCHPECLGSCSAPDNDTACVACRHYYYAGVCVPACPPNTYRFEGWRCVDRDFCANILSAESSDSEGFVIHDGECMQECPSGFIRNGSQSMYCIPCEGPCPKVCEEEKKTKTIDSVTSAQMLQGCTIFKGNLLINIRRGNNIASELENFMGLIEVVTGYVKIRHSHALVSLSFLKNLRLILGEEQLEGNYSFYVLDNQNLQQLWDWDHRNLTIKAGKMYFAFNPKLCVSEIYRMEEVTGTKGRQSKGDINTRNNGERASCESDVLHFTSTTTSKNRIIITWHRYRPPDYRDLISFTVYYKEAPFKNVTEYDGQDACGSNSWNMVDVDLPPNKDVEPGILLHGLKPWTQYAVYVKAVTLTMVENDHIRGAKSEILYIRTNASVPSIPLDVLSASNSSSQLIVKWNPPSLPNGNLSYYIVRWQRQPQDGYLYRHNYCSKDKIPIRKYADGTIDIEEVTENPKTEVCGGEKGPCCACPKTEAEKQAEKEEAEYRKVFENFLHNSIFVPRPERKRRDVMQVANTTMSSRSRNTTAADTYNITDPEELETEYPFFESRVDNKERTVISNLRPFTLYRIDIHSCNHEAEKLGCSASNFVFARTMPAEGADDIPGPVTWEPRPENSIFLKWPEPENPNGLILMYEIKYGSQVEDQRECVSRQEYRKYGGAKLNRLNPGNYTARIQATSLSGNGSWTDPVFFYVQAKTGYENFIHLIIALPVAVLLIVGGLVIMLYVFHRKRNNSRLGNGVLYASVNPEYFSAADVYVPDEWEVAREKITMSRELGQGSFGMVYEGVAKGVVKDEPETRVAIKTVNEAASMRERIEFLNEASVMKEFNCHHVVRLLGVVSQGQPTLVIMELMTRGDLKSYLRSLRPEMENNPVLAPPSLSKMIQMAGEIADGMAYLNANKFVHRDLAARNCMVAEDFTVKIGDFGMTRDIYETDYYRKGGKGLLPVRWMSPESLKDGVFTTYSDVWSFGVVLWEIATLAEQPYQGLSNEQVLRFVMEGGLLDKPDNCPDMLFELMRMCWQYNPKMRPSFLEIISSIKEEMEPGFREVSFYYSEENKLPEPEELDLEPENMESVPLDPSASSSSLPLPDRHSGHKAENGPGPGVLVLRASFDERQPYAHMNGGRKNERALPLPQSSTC

| Variant | effect of a mutation on the interaction |
| --- | --- |
| C231S | increasing interaction |
| D199A;C231S | disrupting interaction |

Variants of: B4
Details: with igf1r_human IGF1R
Remark: another data set of the same source
Target sequence in this assay (P08069 whole entry, looked up): as above

| Variant | effect of a mutation on the interaction |
| --- | --- |
| C235S | decreasing interaction |
| D201A;C235S | with no effect |

Variants of: B5
Details: with erbb4_human ERBB4, Q15303

| Variant | effect of a mutation on the interaction |
| --- | --- |
| D257A;C291S | with no effect |
| C291S | with no effect |

Variants of: B5
Details: with igf1r_human IGF1R
Target sequence in this assay (P08069 whole entry, looked up): as above

| Variant | effect of a mutation on the interaction |
| --- | --- |
| D257A;C291S | with no effect |
| C291S | with no effect |

Variants of: B5
Details: with igf1r_human IGF1R
Remark: another data set of the same source
Target sequence in this assay (P08069 whole entry, looked up): as above

| Variant | effect of a mutation on the interaction |
| --- | --- |
| D257A;C291S | increasing interaction |
| C291S | disrupting interaction |
